Experimental data from publication PMC4930482.

How the values were obtained:
Experiment in all cases: coIP
RFP-RNF26 = RFP-RNF26 (UniProt Q9BY78); conditions: n = 3; parent: est. 100; read off a plot
HA-RNF26 = HA-RNF26 (UniProt Q9BY78); conditions: n = 3; parent: est. 100; read off a plot
[1] = biological target: RNF26, wild type (coIP of Figures 5A and 5B) (UniProt Q9BY78); conditions: HEK293T cells; n = 3; parent: est. 100; read off a plot

Work on FLAG-EPS15 (from UniProt P42566) UIM* yielded a percent of parent (RFP-RNF26) of 14 % Co-IP.
GFP-TAX1BP1 (from UniProt Q86VP1) UBZ2* gave a percent of parent (HA-RNF26) of 39 % Co-IP.
In the case of “TOLLIP, wild type (coIP of Figure 5B) (from UniProt Q9H0E2) CUE*”, the percent of parent [1] is reported as 13 % Co-IP.
